Measured values reported in patent US20180155451A1 (published 2018).

T1: FcγRIIb extracellular domain with C-terminal His tag (human, UniProt P31994 43-217)
T1 construct: extracellular domain; also called FcgRIIb; 2b; not shown: His tag at the C terminus
T1 sequence (looked up): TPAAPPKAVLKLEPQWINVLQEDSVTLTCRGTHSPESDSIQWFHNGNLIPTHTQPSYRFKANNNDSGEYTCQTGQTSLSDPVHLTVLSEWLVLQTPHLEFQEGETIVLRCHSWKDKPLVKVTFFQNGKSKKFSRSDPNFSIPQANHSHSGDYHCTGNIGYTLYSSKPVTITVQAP

T2: FcγRIIa R (FcγRIIa, allotype R: Arg at position 131) extracellular domain with C-terminal His tag (human, UniProt P12318 34-217)
T2 construct: extracellular domain; also called FcgRIIa R; 2aR; not shown: His tag at the C terminus
T2 sequence (looked up): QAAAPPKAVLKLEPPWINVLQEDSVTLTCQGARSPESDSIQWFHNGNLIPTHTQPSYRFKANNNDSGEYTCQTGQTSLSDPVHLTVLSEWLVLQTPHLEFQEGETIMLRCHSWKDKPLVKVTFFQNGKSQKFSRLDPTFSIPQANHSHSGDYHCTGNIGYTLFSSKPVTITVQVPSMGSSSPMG


How the values were obtained:
[1] = biological target: T1, FcγRIIb extracellular domain with …; assay: SPR Biacore, antibody captured, FcgR analyte; vs HeCon Ab GpH7-A5/GpH7-B3/GpL16-k0 = 100
[2] = biological target: T2, FcγRIIa R (FcγRIIa, allotype R: Arg at …); assay: as above
[3] = biological target: T2, FcγRIIa R (FcγRIIa, allotype R: Arg at …); assay: ratio He/Con_2aR : He/Con_2b (FcgRIIa R over FcgRIIb), SPR Biacore
Description: The heterodimerized antibodies He Abs in which one of the H chains was introduced with an alteration were assayed for their binding activities to each activating FcγR and inhibitory FcγR according to the method described in Example 4. […] The activating FcγRs in FIGS. 26, 27, 28, and 29 are FcγRIa, FcγRIIa (R), FcγRIIa (H), and FcγRIIIa, respectively.
Analysis of interaction between objective antibody and the FcγR was carried out using Biacore T100 (GE Healthcare). HBS-EP+ (GE Healthcare) was used as the running buffer, and the measurement temperature was set to 25° C. Chips produced by immobilizing the antigen peptide by the amine coupling method to a Series S Sencor Chip CM5 (GE Healthcare), or alternatively, chips produced by allowing preliminarily biotinylated antigen peptides to interact with and immobilize onto a Series S Sensor Chip SA (certified) (GE Healthcare) were used. Antibodies of interest were captured onto an antigen peptide-immobilized chip, and allowed to interact to each FcγR diluted with running buffer. To regenerate and repeatedly use the chip, the antibodies captured on the chip were washed off by reacting 10 mM glycine-HCl, pH 1.5.

| Binder | He/Con_2b [1] | He/Con_2aR [2] | He_2aR/2b (IIaR/IIb) [3] |
| --- | --- | --- | --- |
| GpH7-A5/GpH7-B3 variant G236_03V/GpL16-k0 (antibody, human IgG1, kappa, He Ab: alteration in the GpH7-B3 H chain only; also called He Ab) heavy 1: not shown heavy 2: not shown light: DIVMTQSPLSLPVTPGEPASISCQASESLVHSNRNTYLHWYLQKPGQSPQLLIYKVSNRFSGVPDRFSGSGSGTDFTLKISRVEAEDVGVYYCSQNTHVPPTFGQGTKVEIERTVAAPSVFIFPPSDEQLKSGTASVVCLLNNFYPREAKVQWKVDNALQSGNSQESVTEQDSKDSTYSLSSTLTLSKADYEKHKVYACEVTHQGLSSPVTKSFNRGEC | 35.3 control = 100 | 91.6 control = 100 | 2.6 |
| GpH7-A5/GpH7-B3 variant G236_12R/GpL16-k0 (antibody, human IgG1, kappa, He Ab: alteration in the GpH7-B3 H chain only; also called He Ab) heavy 1: not shown heavy 2: not shown light: DIVMTQSPLSLPVTPGEPASISCQASESLVHSNRNTYLHWYLQKPGQSPQLLIYKVSNRFSGVPDRFSGSGSGTDFTLKISRVEAEDVGVYYCSQNTHVPPTFGQGTKVEIERTVAAPSVFIFPPSDEQLKSGTASVVCLLNNFYPREAKVQWKVDNALQSGNSQESVTEQDSKDSTYSLSSTLTLSKADYEKHKVYACEVTHQGLSSPVTKSFNRGEC | 6.8 control = 100 | 24.1 control = 100 | 3.55 |
| GpH7-A5/GpH7-B3 variant G236_06M/GpL16-k0 (antibody, human IgG1, kappa, He Ab: alteration in the GpH7-B3 H chain only; also called He Ab) heavy 1: not shown heavy 2: not shown light: DIVMTQSPLSLPVTPGEPASISCQASESLVHSNRNTYLHWYLQKPGQSPQLLIYKVSNRFSGVPDRFSGSGSGTDFTLKISRVEAEDVGVYYCSQNTHVPPTFGQGTKVEIERTVAAPSVFIFPPSDEQLKSGTASVVCLLNNFYPREAKVQWKVDNALQSGNSQESVTEQDSKDSTYSLSSTLTLSKADYEKHKVYACEVTHQGLSSPVTKSFNRGEC | 45.5 control = 100 | 57.3 control = 100 | 1.26 |
| GpH7-A5/GpH7-B3 variant G236_05P/GpL16-k0 (antibody, human IgG1, kappa, He Ab: alteration in the GpH7-B3 H chain only; also called He Ab) heavy 1: not shown heavy 2: not shown light: DIVMTQSPLSLPVTPGEPASISCQASESLVHSNRNTYLHWYLQKPGQSPQLLIYKVSNRFSGVPDRFSGSGSGTDFTLKISRVEAEDVGVYYCSQNTHVPPTFGQGTKVEIERTVAAPSVFIFPPSDEQLKSGTASVVCLLNNFYPREAKVQWKVDNALQSGNSQESVTEQDSKDSTYSLSSTLTLSKADYEKHKVYACEVTHQGLSSPVTKSFNRGEC | 19 control = 100 | 47.9 control = 100 | 2.52 |
| GpH7-A5/GpH7-B3 variant G237_05P/GpL16-k0 (antibody, human IgG1, kappa, He Ab: alteration in the GpH7-B3 H chain only; also called He Ab) heavy 1: not shown heavy 2: not shown light: DIVMTQSPLSLPVTPGEPASISCQASESLVHSNRNTYLHWYLQKPGQSPQLLIYKVSNRFSGVPDRFSGSGSGTDFTLKISRVEAEDVGVYYCSQNTHVPPTFGQGTKVEIERTVAAPSVFIFPPSDEQLKSGTASVVCLLNNFYPREAKVQWKVDNALQSGNSQESVTEQDSKDSTYSLSSTLTLSKADYEKHKVYACEVTHQGLSSPVTKSFNRGEC | 24.6 control = 100 | 34.5 control = 100 | 1.4 |
| GpH7-A5/GpH7-B3 variant G236_16H/GpL16-k0 (antibody, human IgG1, kappa, He Ab: alteration in the GpH7-B3 H chain only; also called He Ab) heavy 1: not shown heavy 2: not shown light: DIVMTQSPLSLPVTPGEPASISCQASESLVHSNRNTYLHWYLQKPGQSPQLLIYKVSNRFSGVPDRFSGSGSGTDFTLKISRVEAEDVGVYYCSQNTHVPPTFGQGTKVEIERTVAAPSVFIFPPSDEQLKSGTASVVCLLNNFYPREAKVQWKVDNALQSGNSQESVTEQDSKDSTYSLSSTLTLSKADYEKHKVYACEVTHQGLSSPVTKSFNRGEC | 27.9 control = 100 | 62.7 control = 100 | 2.24 |
| GpH7-A5/GpH7-B3 variant G237_03V/GpL16-k0 (antibody, human IgG1, kappa, He Ab: alteration in the GpH7-B3 H chain only; also called He Ab) heavy 1: not shown heavy 2: not shown light: DIVMTQSPLSLPVTPGEPASISCQASESLVHSNRNTYLHWYLQKPGQSPQLLIYKVSNRFSGVPDRFSGSGSGTDFTLKISRVEAEDVGVYYCSQNTHVPPTFGQGTKVEIERTVAAPSVFIFPPSDEQLKSGTASVVCLLNNFYPREAKVQWKVDNALQSGNSQESVTEQDSKDSTYSLSSTLTLSKADYEKHKVYACEVTHQGLSSPVTKSFNRGEC | 61.4 control = 100 | 93 control = 100 | 1.52 |
| GpH7-A5/GpH7-B3 variant G236_04F/GpL16-k0 (antibody, human IgG1, kappa, He Ab: alteration in the GpH7-B3 H chain only; also called He Ab) heavy 1: not shown heavy 2: not shown light: DIVMTQSPLSLPVTPGEPASISCQASESLVHSNRNTYLHWYLQKPGQSPQLLIYKVSNRFSGVPDRFSGSGSGTDFTLKISRVEAEDVGVYYCSQNTHVPPTFGQGTKVEIERTVAAPSVFIFPPSDEQLKSGTASVVCLLNNFYPREAKVQWKVDNALQSGNSQESVTEQDSKDSTYSLSSTLTLSKADYEKHKVYACEVTHQGLSSPVTKSFNRGEC | 39.3 control = 100 | 53.1 control = 100 | 1.35 |
| GpH7-A5/GpH7-B3 variant G236_07I/GpL16-k0 (antibody, human IgG1, kappa, He Ab: alteration in the GpH7-B3 H chain only; also called He Ab) heavy 1: not shown heavy 2: not shown light: DIVMTQSPLSLPVTPGEPASISCQASESLVHSNRNTYLHWYLQKPGQSPQLLIYKVSNRFSGVPDRFSGSGSGTDFTLKISRVEAEDVGVYYCSQNTHVPPTFGQGTKVEIERTVAAPSVFIFPPSDEQLKSGTASVVCLLNNFYPREAKVQWKVDNALQSGNSQESVTEQDSKDSTYSLSSTLTLSKADYEKHKVYACEVTHQGLSSPVTKSFNRGEC | 31 control = 100 | 87.1 control = 100 | 2.81 |
| GpH7-A5/GpH7-B3 variant G236_08L/GpL16-k0 (antibody, human IgG1, kappa, He Ab: alteration in the GpH7-B3 H chain only; also called He Ab) heavy 1: not shown heavy 2: not shown light: DIVMTQSPLSLPVTPGEPASISCQASESLVHSNRNTYLHWYLQKPGQSPQLLIYKVSNRFSGVPDRFSGSGSGTDFTLKISRVEAEDVGVYYCSQNTHVPPTFGQGTKVEIERTVAAPSVFIFPPSDEQLKSGTASVVCLLNNFYPREAKVQWKVDNALQSGNSQESVTEQDSKDSTYSLSSTLTLSKADYEKHKVYACEVTHQGLSSPVTKSFNRGEC | 26.8 control = 100 | 65.8 control = 100 | 2.45 |
| GpH7-A5/GpH7-B3 variant G236_15Y/GpL16-k0 (antibody, human IgG1, kappa, He Ab: alteration in the GpH7-B3 H chain only; also called He Ab) heavy 1: not shown heavy 2: not shown light: DIVMTQSPLSLPVTPGEPASISCQASESLVHSNRNTYLHWYLQKPGQSPQLLIYKVSNRFSGVPDRFSGSGSGTDFTLKISRVEAEDVGVYYCSQNTHVPPTFGQGTKVEIERTVAAPSVFIFPPSDEQLKSGTASVVCLLNNFYPREAKVQWKVDNALQSGNSQESVTEQDSKDSTYSLSSTLTLSKADYEKHKVYACEVTHQGLSSPVTKSFNRGEC | 39.5 control = 100 | 58.6 control = 100 | 1.48 |
| GpH7-A5/GpH7-B3 variant G236_19Q/GpL16-k0 (antibody, human IgG1, kappa, He Ab: alteration in the GpH7-B3 H chain only; also called He Ab) heavy 1: not shown heavy 2: not shown light: DIVMTQSPLSLPVTPGEPASISCQASESLVHSNRNTYLHWYLQKPGQSPQLLIYKVSNRFSGVPDRFSGSGSGTDFTLKISRVEAEDVGVYYCSQNTHVPPTFGQGTKVEIERTVAAPSVFIFPPSDEQLKSGTASVVCLLNNFYPREAKVQWKVDNALQSGNSQESVTEQDSKDSTYSLSSTLTLSKADYEKHKVYACEVTHQGLSSPVTKSFNRGEC | 46.6 control = 100 | 74.2 control = 100 | 1.59 |
| GpH7-A5/GpH7-B3 variant G236_14T/GpL16-k0 (antibody, human IgG1, kappa, He Ab: alteration in the GpH7-B3 H chain only; also called He Ab) heavy 1: not shown heavy 2: not shown light: DIVMTQSPLSLPVTPGEPASISCQASESLVHSNRNTYLHWYLQKPGQSPQLLIYKVSNRFSGVPDRFSGSGSGTDFTLKISRVEAEDVGVYYCSQNTHVPPTFGQGTKVEIERTVAAPSVFIFPPSDEQLKSGTASVVCLLNNFYPREAKVQWKVDNALQSGNSQESVTEQDSKDSTYSLSSTLTLSKADYEKHKVYACEVTHQGLSSPVTKSFNRGEC | 57.8 control = 100 | 103 control = 100 | 1.78 |
| GpH7-A5/GpH7-B3 variant G236_13S/GpL16-k0 (antibody, human IgG1, kappa, He Ab: alteration in the GpH7-B3 H chain only; also called He Ab) heavy 1: not shown heavy 2: not shown light: DIVMTQSPLSLPVTPGEPASISCQASESLVHSNRNTYLHWYLQKPGQSPQLLIYKVSNRFSGVPDRFSGSGSGTDFTLKISRVEAEDVGVYYCSQNTHVPPTFGQGTKVEIERTVAAPSVFIFPPSDEQLKSGTASVVCLLNNFYPREAKVQWKVDNALQSGNSQESVTEQDSKDSTYSLSSTLTLSKADYEKHKVYACEVTHQGLSSPVTKSFNRGEC | 96.7 control = 100 | 136 control = 100 | 1.41 |
| GpH7-A5/GpH7-B3 variant G236_20W/GpL16-k0 (antibody, human IgG1, kappa, He Ab: alteration in the GpH7-B3 H chain only; also called He Ab) heavy 1: not shown heavy 2: not shown light: DIVMTQSPLSLPVTPGEPASISCQASESLVHSNRNTYLHWYLQKPGQSPQLLIYKVSNRFSGVPDRFSGSGSGTDFTLKISRVEAEDVGVYYCSQNTHVPPTFGQGTKVEIERTVAAPSVFIFPPSDEQLKSGTASVVCLLNNFYPREAKVQWKVDNALQSGNSQESVTEQDSKDSTYSLSSTLTLSKADYEKHKVYACEVTHQGLSSPVTKSFNRGEC | 58.2 control = 100 | 77.9 control = 100 | 1.34 |
